The target of this experiment is Untagged murine saposin A (SapA) (mouse). In words: crystal structure; complex formed at pH 5.0 with the detergent LDAO, SapA:GALC molar ratio 2:1; crystals at 20 °C from 75 mM sodium citrate pH 5.6, 11% PEG 3350; 3.6 Å.

Regarding “Untagged murine saposin A (SapA) (natural protein)”, the stoichiometry N worked out at 2.

The values are drawn from paper PMC5764952 (2018).
